Numbering of substitutions follows the chain as printed.
B1: A20.1p (other)
VHH: QVQLVESGGGLAQAGGSLRLSCAASGRTFSMDPMAWFRQPPGKEREFVAAGSSTGRTTYYADSVKGRFTISRDNAKNTVYLQMNSLKPEDTAVYYCAAAPYGANWYRDEYAYWGQGTQVTVSS
B2: A5.1p (other)
VHH: QVKLEESGGGLVQAGGSLRLSCAASGRTFSMYRMGWFRQAPGKEREFVGVITRNGSSTYYADSVKGRFTISRDNAKNTVYLQMNSLKPEDTALYYCAATSGSSYLDAAHVYDYWGQGTQVTVSS
B3: A4.2m (VHH)
VHH: QVKLEESGGGLVQAGGSLRLSCAASGRTFNTLSMGWFRQAPGKEREFVCAVSRSGGSTYYADSVKGRFTCSRDNAKNTVYLQMNSLKPEDTAVYYCAAAATKSNTTAYRLSFDYWGQGTQVTVSS
notes: also called mutant A4.2; disulfide mutant of A4.2
B4: A5.1m (VHH)
VHH: B2 VHH with G49C, I70C
notes: also called mutant A5.1; disulfide mutant of A5.1
B5: A20.1m (VHH)
VHH: B1 VHH with A49C, I70C
notes: also called mutant A20.1; disulfide mutant of A20.1
B6: A26.8m (VHH)
VHH: QVKLEESGGGLVQAGGSLRLSCAASERTFSRYPVAWFRQAPGAEREFVCVISSTGTSTYYADSVKGRFTCSRDNAKVTVYLQMNNLKREDTAVYFCAVNSQRTRLQDPNEYDYWGQGTQVTVSS
notes: also called mutant A26.8; disulfide mutant of A26.8
B7: B5.2 (VHH)
VHH: QVQLVESGGGLVQPGGSLRLSCAASGNIFSINTMGWYRQAPGKQLELVAAITSGGTTSYTDSVEGRFTISRDNAKNAVYLQMNSLKAEDTAVYYCNTVKVVGGRLDNPDYWGQGTQVTVSS
notes: llama VHH monomer; also called anti-TcdB VHH B5.2
B8: A20.1 (VHH)
VHH: B1 VHH
notes: also called anti-TcdA VHH A20.1
B9: A19.2 (VHH)
VHH: QVKLEESGGGLVQPGGSLRLSCAASGRTLSSYIVAWFRQAPGKEREFVAGISRRGGNSAYVESVKGRFTISRDNAKNTVYLQMNSLKPEDTAVYYCAADGSVAGWGRRSVSVSSYDYWGQGTQVTVSS
notes: also called anti-TcdA VHH A19.2
B10: A5.1 (VHH)
VHH: B2 VHH
notes: also called anti-TcdA VHH A5.1
B11: A24.1 (VHH)
VHH: QVQLVESGGGLVQAGGSLRLSCAASIRSFSNRNMGWFRQPPGKEREFVAGISWGGGSTRYADSVKGRFTISRDNAKKTVYLQMNSLKPEDTAVYYCAAEFGHNIATSSDEYDYWGQGTQVTVSS
notes: also called anti-TcdA VHH A24.1
B12: A4.2 (VHH)
VHH: B3 VHH with C49A, C70I
notes: also called anti-TcdA VHH A4.2
B13: A26.8 (VHH)
VHH: B6 VHH with C49A, C70I
notes: also called anti-TcdA VHH A26.8
B14: B13.6 (VHH)
VHH: QVKLEESGGGLVQAGGSLRLSCSASGRTFSSGVMGWFRQAPGKQRELVAAITTGGSTSYTDSVKGRFTISRDNAKNTVYLQMNSLKPEDTAVYYCNSVAVVGGVIKSPDYWGQGTQVTVSS
notes: llama VHH monomer; also called anti-TcdB VHH B13.6
B15: B15.5 (VHH)
VHH: QVQLVESGGDLVQAGGSLRLSCAASGSISRISTMGWYRQAPGKQRELVATISTGGTTNYAESVKGRFTVSRDNAKNTMYLQMNSLKPEDTAVYYCAAGWKVVRGSLEYEYSGQGTQVTVSS
notes: llama VHH monomer; also called anti-TcdB VHH B15.5

Target: T1, Clostridium difficile toxin A (TcdA) (Clostridium difficile strain 10463, UniProt P16154 1-2710)
Experiment: not given

Binder | EC50 (read off the curve) [µM]
B1 | ~0.001
B2 | ~0.004

Target: T1, Clostridium difficile toxin A (TcdA)
Experiment: not given
Remark: another data set of the same source

Binder | koff [s⁻¹]
B3 | 0.016
B4 | 0.013
B5 | 0.0059
B6 | 0.019

Target: T1, Clostridium difficile toxin A (TcdA)
Experiment: ELISA, antigen coated

Binder | binding result
B7 | binds

Target: T2, Clostridium difficile toxin B (TcdB) (Clostridium difficile strain 10463, UniProt P18177 1-2366)
T2 construct: range 1-2366
Experiment: ELISA, antigen coated

Binder | binding result
B8 | no binding
B9 | no binding
B10 | no binding
B11 | no binding
B12 | no binding

Target: T3, TcdA-RBD-f1 (Clostridium difficile, UniProt P16154 2304-2710)
T3 construct: range 2304-2710
Experiment: ELISA, antigen coated

Binder | binding result
B13 | binds

Target: T4, TcdB-RBD-f1 (Clostridium difficile, UniProt P18177 2286-2366)
T4 construct: range 2286-2366
Experiment: ELISA, antigen coated

Binder | binding result
B8 | no binding
B9 | no binding
B10 | no binding
B11 | no binding
B12 | no binding
B13 | no binding

Target: T1, Clostridium difficile toxin A (TcdA)
Experiment: SPR, TcdA immobilized; same value as in Table 1

Binder | Kd [µM] | koff [s⁻¹] | kon [M⁻¹ s⁻¹]
B8 | 0.002 | 0.0016 | 820000
B9 | 0.29 | 0.0039 | 14000
B10 | 0.003 | 0.005 | 1.6e+06
B11 | 0.26 | 0.016 | 60000
B12 | 0.024 | 0.016 | 670000

Target: T1, Clostridium difficile toxin A (TcdA)
Experiment: SPR (BIACORE 3000); 10,287 RUs of TcdA immobilized, VHH injected

Binder | Kd [µM] | koff [s⁻¹] | kon [M⁻¹ s⁻¹]
B3 | 0.02 | 0.019 | 930000
B4 | 0.017 | 0.016 | 950000
B5 | 0.0092 | 0.0059 | 640000
B6 | 0.028 | 0.028 | 1e+06

Target: T1, Clostridium difficile toxin A (TcdA)
Experiment: ELISA, TcdA coated at 5 ug/ml, rabbit anti-His6 IgG-HRP

Binder | EC50 (read off the curve) [µM]
B8 | ~0.001
B10 | ~0.007

Target: T4, TcdB-RBD-f1
Experiment: SPR (BIACORE 3000); VHH immobilized on CM5 chip, TcdB-RBD-f1 injected

Binder | Kd [µM] | koff [s⁻¹] | kon [M⁻¹ s⁻¹]
B7 | 0.1 | 0.0002 | 2000
B14 | 0.4 | 0.001 | 2500
B15 | 0.357 | 0.001 | 2800

Target: T1, Clostridium difficile toxin A (TcdA)
Experiment: SPR (BIACORE 3000); TcdA immobilized on CM5 chip, monomeric VHH injected

Binder | Kd [µM] | koff [s⁻¹] | kon [M⁻¹ s⁻¹]
B8 | 0.002 | 0.0016 | 820000
B9 | 0.29 | 0.0039 | 14000
B10 | 0.003 | 0.005 | 1.6e+06
B11 | 0.26 | 0.016 | 60000
B12 | 0.024 | 0.016 | 

Target: T1, Clostridium difficile toxin A (TcdA)
Experiment: ELISA, immobilized TcdA, serial dilution of VHH, rabbit anti-His6 IgG-HRP

Binder | EC50 (read off the curve) [mg/L]
B9 | ~0.04
